The source of these data is patent publication US20230212244A1 (IMMATICS BIOTECHNOLOGIES, published 2023).

This assay deals with T1, HLA-A*02:01 (human).
T1 construct: MHC class I monomer made peptide-receptive by UV cleavage of a UV-sensitive ligand; also called peptide-receptive MHC molecules
Description: UV-ligand exchange ELISA (anti-β2m), peptide exchange yield grade. The text has this:
Candidate peptides for T cell based therapies according to the present invention were further tested for their MHC binding capacity (affinity). The individual peptide-MHC complexes were produced by UV-ligand exchange, where a UV-sensitive peptide is cleaved upon UV-irradiation, and exchanged with the peptide of interest as analyzed. Only peptide candidates that can effectively bind and stabilize the peptide-receptive MHC molecules prevent dissociation of the MHC complexes. To determine the yield of the exchange reaction, an ELISA was performed based on the detection of the light chain (β2m) of stabilized MHC complexes. The assay was performed as generally described in Rodenko et al. (Rodenko et al., 2006).
96 well MAXISorp plates (NUNC) were coated over night with 2ug/ml streptavidin in PBS at room temperature, washed 4× and blocked for1h at 37° C. in 2% BSA containing blocking buffer. Refolded HLA-A*02:01/MLA-001 monomers served as standards, covering the range of 15-500 ng/ml. Peptide-MHC monomers of the UV-exchange reaction were diluted 100 fold in blocking buffer. Samples were incubated for 1h at 37° C., washed four times, incubated with 2 ug/ml HRP conjugated anti-β2m for 1h at 37° C., washed again and detected with TMB solution that is stopped with […]. Absorption was measured at 450 nm. Candidate peptides that show a high exchange yield (preferably higher than 50%, most preferred higher than 75 %) are generally preferred for a generation and production of antibodies or fragments thereof, and/or T cell receptors or fragments thereof, as they show sufficient avidity to the MHC molecules and prevent dissociation of the MHC complexes.
Background: In an ELISA, binding on a coated surface is turned into a signal by an enzyme label.
With ILHDINSDGVL [peptide ILHDINSDGVL (SEQ ID NO: 85)], the peptide exchange yield lay within 20 to 50%. With SLESKLTSV [peptide SLESKLTSV (SEQ ID NO: 44)] the figure was 50 to 75%; with KLNTETFGV [peptide KLNTETFGV (SEQ ID NO: 32)], 20 to 50%; with SLLKRDFGA [peptide SLLKRDFGA (SEQ ID NO: 77)], 20 to 50%.

In turn, AMADKMDMSL [peptide AMADKMDMSL (SEQ ID NO: 58)] registered a peptide exchange yield of 20 to 50%. Molecule ALWEKNTHL [peptide ALWEKNTHL (SEQ ID NO: 33)] gave a peptide exchange yield of 50 to 75%. The molecule QVDEVVDIMRV (also called QVDEVVDIMRV) [peptide … (SEQ ID NO: 80)] showed a peptide exchange yield of 20 to 50%.

With WLFDDGGLTL [peptide WLFDDGGLTL (SEQ ID NO: 5)], the peptide exchange yield is at least 75%.

KTLGKLWRL [peptide KTLGKLWRL (SEQ ID NO: 64)]: the peptide exchange yield lay within 20 to 50%. With QVWEIQHTV [peptide QVWEIQHTV (SEQ ID NO: 51)] the figure was 20 to 50%; with RLWTEIPTAI [peptide RLWTEIPTAI (SEQ ID NO: 71)], 50 to 75%; with KVFPGKISV [peptide KVFPGKISV (SEQ ID NO: 86)], 20 to 50%.

The molecule YLAPENGYL [peptide YLAPENGYL (SEQ ID NO: 62)] displayed a peptide exchange yield of 20 to 50%. With GLDDRYSLV [peptide GLDDRYSLV (SEQ ID NO: 46)] the figure was 50 to 75%; with FLLGSEIKL [peptide FLLGSEIKL (SEQ ID NO: 53)], 50 to 75%; with FLDASDPAL [peptide FLDASDPAL (SEQ ID NO: 48)], 20 to 50%.

QLYEEPDTKL [peptide QLYEEPDTKL (SEQ ID NO: 82)] displayed a peptide exchange yield of 20 to 50%.

On to FLAELPGSLSL [peptide FLAELPGSLSL (SEQ ID NO: 6)], for which the peptide exchange yield lay within 50 to 75%. With YLLDYPNNLL [peptide YLLDYPNNLL (SEQ ID NO: 72)] the figure was 50 to 75%; with ALDSSNSMQTI [peptide ALDSSNSMQTI (SEQ ID NO: 52)], 20 to 50%. In turn, ILLEKSVSV [peptide ILLEKSVSV (SEQ ID NO: 34)] gave a peptide exchange yield of 50 to 75%. With YLTRHLAVL [peptide YLTRHLAVL (SEQ ID NO: 7)] the figure was 20 to 50%; with ILDDSFKLL [peptide ILDDSFKLL (SEQ ID NO: 41)], 20 to 50%. With LLFDAPDLRL [peptide LLFDAPDLRL (SEQ ID NO: 87)] the figure was 50 to 75%. With YLFDIAVSM [peptide YLFDIAVSM (SEQ ID NO: 73)] the figure was 50 to 75%.

EMIENIQSV [peptide EMIENIQSV (SEQ ID NO: 75)] had a peptide exchange yield of 20 to 50%. With VLFTDEGVPKFL [peptide VLFTDEGVPKFL (SEQ ID NO: 56)] the figure was 20 to 50%.

As for RLAELTVDEFL [peptide RLAELTVDEFL (SEQ ID NO: 4)], the peptide exchange yield lay in the range of 50 to 75%. On to SLNDLEKDVMLL [peptide SLNDLEKDVMLL (SEQ ID NO: 67)], for which the peptide exchange yield lay in the range of 50 to 75%. The molecule LLTDNVVKL [peptide LLTDNWKL (SEQ ID NO: 59)] showed a peptide exchange yield of 50 to 75%. With SLAADQLLKL [peptide SLAADQLLKL (SEQ ID NO: 79)] the figure was 20 to 50%. For the molecule TLMAEMHVV [peptide TLMAEMHW (SEQ ID NO: 50)], the peptide exchange yield fell in the range of 50 to 75%.

Turning to SMVEDITGLRL [peptide SMVEDITGLRL (SEQ ID NO: 84)], the peptide exchange yield fell in the range of 50 to 75%. On to MISELEVRL [peptide MISELEVRL (SEQ ID NO: 70)], for which the peptide exchange yield lay in the range of 50 to 75%. The molecule ALSNVIHKV [peptide ALSNVIHKV (SEQ ID NO: 40)] yielded a peptide exchange yield of 20 to 50%. With GLDDGPDFL [peptide GLDDGPDFL (SEQ ID NO: 66)] the figure was 20 to 50%; with KLFSILSTV [peptide KLFSILSTV (SEQ ID NO: 63)], 20 to 50%; with KLYERCEVV (also called KLYERCEVV) [peptide KLYERCEW (SEQ ID NO: 47)], 20 to 50%.

The molecule YLIGEKQHYL [peptide YLIGEKQHYL (SEQ ID NO: 76)] came in with a peptide exchange yield of 50 to 75%. With GLLKPGLNVVL (also called …) [peptide GLLKPGLNVVL (SEQ ID NO: 90)] the figure was 50 to 75%. With KLLDLTVRI [peptide KLLDLTVRI (SEQ ID NO: 35)] the figure was 50 to 75%. With ALDPELLLL [peptide ALDPELLLL (SEQ ID NO: 78)] the figure was 20 to 50%; with SLIEYEFRV [peptide SLIEYEFRV (SEQ ID NO: 89)], 50 to 75%. VLDEDEPRFL [peptide VLDEDEPRFL (SEQ ID NO: 60)] had a peptide exchange yield of 20 to 50%.

As to ALAELLHGA [peptide ALAELLHGA (SEQ ID NO: 45)], the peptide exchange yield lay within 50 to 75%. With SILQFVHMV [peptide SILQFVHMV (SEQ ID NO: 68)] the figure was 50 to 75%. With TLDAAQPRV [peptide TLDAAQPRV (SEQ ID NO: 43)], the peptide exchange yield was in the range of 20 to 50%. With YLMGFLHAV [peptide YLMGFLHAV (SEQ ID NO: 74)] the figure was 50 to 75%. With SLAPTPVSA [peptide SLAPTPVSA (SEQ ID NO: 38)] the figure was 20 to 50%; with SILDDSFKL [peptide SILDDSFKL (SEQ ID NO: 42)], at least 75%. With NLLEKENYL [peptide NLLEKENYL (SEQ ID NO: 57)] the figure was 50 to 75%; with LLYGKYVSV [peptide LLYGKYVSV (SEQ ID NO: 31)], 50 to 75%; with KLDIKVETV [peptide KLDIKVETV (SEQ ID NO: 88)], at least 75%. Turning to GLFAGLGGAGA [peptide GLFAGLGGAGA (SEQ ID NO: 37)], the peptide exchange yield lay in the range of 50 to 75%. With GLLESPSIFNFTA [peptide GLLESPSIFNFTA (SEQ ID NO: 36)] the figure was 50 to 75%. The molecule LTIEDGIFEV [peptide LTIEDGIFEV (SEQ ID NO: 83)] registered a peptide exchange yield of 50 to 75%. With ALLNGEYLLAA [peptide ALLNGEYLLAA (SEQ ID NO: 54)] the figure was 50 to 75%. For GMLNEAEGKAIKL [peptide GMLNEAEGKAIKL (SEQ ID NO: 69)], the peptide exchange yield was 20 to 50%.

ALLSQQTHL [peptide ALLSQQTHL (SEQ ID NO: 81)]: the peptide exchange yield fell in the range of 50 to 75%. On to KLLKLFQGV [peptide KLLKLFQGV (SEQ ID NO: 61)], for which the peptide exchange yield is 50 to 75%. With ALMLQGVDLL [peptide ALMLQGVDLL (SEQ ID NO: 8)] the figure was 50 to 75%.
